Residue numbers refer to the chain shown, from its start.
T1: recombinant HIS-tagged human nectin-4 (Acro Biosystems Cat. No. NE4-H52H3) (human, UniProt Q96NY8 32-349)
T1 construct: Bought protein; not shown: HIS tag
T1 sequence: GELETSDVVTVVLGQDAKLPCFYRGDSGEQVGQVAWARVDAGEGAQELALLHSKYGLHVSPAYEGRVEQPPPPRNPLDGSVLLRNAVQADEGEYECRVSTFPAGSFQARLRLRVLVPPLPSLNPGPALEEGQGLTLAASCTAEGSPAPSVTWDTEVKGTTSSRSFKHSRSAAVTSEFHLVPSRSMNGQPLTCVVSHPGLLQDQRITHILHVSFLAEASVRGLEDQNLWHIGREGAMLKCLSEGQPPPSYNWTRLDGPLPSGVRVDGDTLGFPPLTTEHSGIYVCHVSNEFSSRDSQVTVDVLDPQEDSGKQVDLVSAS

T2: recombinant HIS-tagged rat nectin-4 (R&D Systems Cat. No. 9997-N4-050) (rat, UniProt D3ZET1 31-348)
T2 construct: Bought protein; HIS tag not described
T2 sequence: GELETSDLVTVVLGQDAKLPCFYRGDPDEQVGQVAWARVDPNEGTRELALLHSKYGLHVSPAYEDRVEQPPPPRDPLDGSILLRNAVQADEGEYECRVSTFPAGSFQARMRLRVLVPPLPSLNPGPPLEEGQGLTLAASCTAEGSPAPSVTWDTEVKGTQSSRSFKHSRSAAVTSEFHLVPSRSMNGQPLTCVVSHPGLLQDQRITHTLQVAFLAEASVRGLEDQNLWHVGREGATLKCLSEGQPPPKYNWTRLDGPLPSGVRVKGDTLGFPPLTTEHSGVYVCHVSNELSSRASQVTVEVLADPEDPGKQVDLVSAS

T3: recombinant HIS-tagged cyno nectin-4 (Acro Biosystems Cat. No. NE4-C52H4) (cyno, UniProt A0A2K5WES1 32-349)
T3 construct: Bought protein; HIS tag not described
T3 sequence: T1 sequence with V39A, I230V

T4: human Nectin-4-eGFP on T24 cells (clone 3) (human, UniProt Q96NY8 32-510)
T4 sequence: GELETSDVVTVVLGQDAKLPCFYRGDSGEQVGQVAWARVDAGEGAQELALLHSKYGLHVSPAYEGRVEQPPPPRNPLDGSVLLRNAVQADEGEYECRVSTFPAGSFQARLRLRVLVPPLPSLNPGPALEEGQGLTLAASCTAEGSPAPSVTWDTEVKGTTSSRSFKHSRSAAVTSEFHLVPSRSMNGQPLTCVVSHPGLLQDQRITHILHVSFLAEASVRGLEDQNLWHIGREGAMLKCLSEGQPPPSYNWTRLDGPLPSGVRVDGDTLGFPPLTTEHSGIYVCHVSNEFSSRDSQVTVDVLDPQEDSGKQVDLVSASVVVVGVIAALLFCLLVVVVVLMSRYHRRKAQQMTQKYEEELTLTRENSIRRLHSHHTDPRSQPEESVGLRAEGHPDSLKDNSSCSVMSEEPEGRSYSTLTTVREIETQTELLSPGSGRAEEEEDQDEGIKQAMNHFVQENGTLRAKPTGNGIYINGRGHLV

T5: human nectin-4 on cells (human, UniProt Q96NY8 32-510)
T5 sequence: T4 sequence

B1: Ab2 ADC (Ab2 conjugated as in Formula XI, DAR of 8) (antibody, human IgG1, kappa, L234A L235A, V domains shown)
VH: EVQLVESGGGLVQPGGSLRLSCAASGFTFSSYDMHWVRQATGKGLEWVSAIGTVGDTYYPGSVKGRFTISRENAKNSLYLQMNSLRAGDTAVYYCAREWNGMDVWGQGTTVTVSS
VL: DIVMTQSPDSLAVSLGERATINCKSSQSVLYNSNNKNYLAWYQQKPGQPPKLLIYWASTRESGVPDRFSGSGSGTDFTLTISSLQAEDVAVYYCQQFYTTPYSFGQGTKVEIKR
modifications: camptothecin analog linker-payload of Formula XI on cysteine thiols after full reduction, DAR of 8 per antibody; positions not given
notes: Antibody-drug conjugate of Ab2; also called Ab2 (ADC column)
B2: Ab8 ADC (Ab8 conjugated as in Formula XI, DAR of 8) (antibody, human IgG1, lambda, L234A L235A, V domains shown)
VH: QVQLVQSGAEVKKPGASVKVSCKASGYTFTSYYIHWVRQAPGQGLEWMGIINPISGRTSSAQKFQGRVTMTRDTSTSTVYMELSSLRSEDTAVYYCAKEGVGGELLRAFDIWGQGTLVTVSS
VL: QSVLTQPPSVSEAPRQRVTISCSGSSSNIGNNAVNWYQQLPGKAPKLLIYYDDLLPSGVSDRFSGSKSGTSASLAISGLQSEDEADYYCAAWDDSLNGFVFGGGTKLTVLG
modifications: camptothecin analog linker-payload of Formula XI on cysteine thiols after full reduction, DAR of 8 per antibody; positions not given
notes: Antibody-drug conjugate of Ab8; also called Ab8 (ADC column)
B3: Ab5 ADC (Ab5 conjugated as in Formula XI, DAR of 8) (antibody, human IgG1, kappa, L234A L235A, V domains shown)
VH: QVQLVQSGAEVKKPGASVKVSCKASGYTFTSYYVHWVRQAPGQGLEWMGIINPSIISTSYAQKFQARVTMTRDTSTSTVYMELSSLRSEDTAVYYCARGLNFDAFDIWGQGTLVTVSS
VL: DIQLTQSPSFLSASVGDRVTITCRASQGISSYLAWYQQKPGKAPKLLIYAASTLQSGVPSRFSGSGSGTEFTLTISSLQPEDFATYYCQQLNNYPFTFGQGTKVEIKR
modifications: camptothecin analog linker-payload of Formula XI on cysteine thiols after full reduction, DAR of 8 per antibody; positions not given
notes: Antibody-drug conjugate of Ab5; also called Ab5 (ADC column)
B4: Ab7 ADC (Ab7 conjugated as in Formula XI, DAR of 8) (antibody, human IgG1, lambda, L234A L235A, V domains shown)
VH: QVQLVQSGAEVKKPGASVKVSCKASGYTFTNYYMHWVRQAPGQGLEWMGIINPSSGSASYAQKFQGRVTMTRDTSTSTVYMELSSLRSEDTAVYYCAREGVGRDILQAFDIWGQGTLVTVSS
VL: B2 VL with F99H
modifications: camptothecin analog linker-payload of Formula XI on cysteine thiols after full reduction, DAR of 8 per antibody; positions not given
notes: Antibody-drug conjugate of Ab7; also called Ab7 (ADC column)
B5: Ab1a ADC (Ab1a conjugated as in Formula XI, DAR of 8) (antibody, human IgG1, kappa, L234A L235A, V domains shown)
VH: QVQLVQSGAQVKKPGASVKVSCKASGYTFTGYYIHWVRQAPGQGLEWMGWINPNSGGTNYAQKFQGRVTMTRDTSISTAYMELSRLRSDDTAVYFCAREDWDFDYWGQGTLVTVSS
VL: EIVLTQSPGTLSLSPGERATLSCRTSQSVSSSYLAWYQQKPGQAPRLLIYGASNRATDIPDRFSGSGSGTDFTLTINRLEPEDFAVYYCQQYGSSPITFGQGTRLEIKR
modifications: camptothecin analog linker-payload of Formula XI on cysteine thiols after full reduction, DAR of 8 per antibody; positions not given
notes: Antibody-drug conjugate of Ab1a; also called Ab1a (ADC column)
B6: enfortumab (antibody, V domains shown)
VH: EVQLVESGGGLVQPGGSLRLSCAASGFTFSSYNMNWVRQAPGKGLEWVSYISSSSSTIYYADSVKGRFTISRDNAKNSLSLQMNSLRDEDTAVYYCARAYYYGMDVWGQGTTVTVSS
VL: DIQMTQSPSSVSASVGDRVTITCRASQGISGWLAWYQQKPGKAPKFLIYAASTLQSGVPSRFSGSGSGTDFTLTISSLQPEDFATYYCQQANSFPPTFGGGTKVEIKR
B7: Ab2 (antibody, human IgG1, kappa, L234A L235A, V domains shown)
VH: B1 VH
VL: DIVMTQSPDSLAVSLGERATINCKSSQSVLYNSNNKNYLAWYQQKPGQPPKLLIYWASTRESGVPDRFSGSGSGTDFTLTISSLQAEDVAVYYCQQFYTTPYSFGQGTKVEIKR
notes: Unconjugated antibody; also called Antibody 2; nectin-4 antibody Ab2

biological target: T1, recombinant HIS-tagged human nectin-4 …; assay: SPR Biacore 8K+, ADC captured via anti-human Fc, nectin-4 analyte, 37 C;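 further: Nectin-4 injected over captured ADC at 0 to 600 nM for 2 min association, then 10 min dissociation, with a reference flow cell lacking ADC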

Binder | Kd [nM] | koff [s⁻¹] | kon [M⁻¹ s⁻¹]
B1 | 21 | 0.0214 | 1.02e+06
B2 | 48.7 | 0.0338 | 694000
B3 | 3.94 | 0.00346 | 878000

biological target: T2, recombinant HIS-tagged rat nectin-4 …; assay: as above

Binder | Kd [nM] | koff [s⁻¹] | kon [M⁻¹ s⁻¹]
B1 | 108 | 0.0753 | 695000
B2 | 34.4 | 0.0165 | 482000
B4 | 73.1 | 0.0296 | 404000
B3 | 31.3 | 0.0199 | 636000
B5 | 180 | 0.0453 | 252000

biological target: T3, recombinant HIS-tagged cyno nectin-4 …; assay: as above

Binder | Kd [nM] | koff [s⁻¹] | kon [M⁻¹ s⁻¹]
B1 | 19.8 | 0.02 | 1.01e+06
B2 | 42.1 | 0.0524 | 1.25e+06
B4 | 39.2 | 0.0464 | 1.18e+06
B3 | 3.1 | 0.0033 | 1.06e+06
B5 | 83.9 | 0.026 | 310000

biological target: T1, recombinant HIS-tagged human nectin-4 …; assay: SPR Biacore 8K+, ADC captured via anti-human Fc, nectin-4 analyte, 37 C; replicate 2 of 2

Binder | Kd [nM] | koff [s⁻¹] | kon [M⁻¹ s⁻¹]
B4 | 37.6 | 0.0212 | 564000
B5 | 72.5 | 0.0308 | 424000

biological target: T4, human Nectin-4-eGFP on T24 cells (clone …); assay: cell-based or functional assay

Binder | % activity (max GFP signal loss compared to enfortumab mAb (100%)) [%] | EC50 (nM) of nectin-4-eGFP signal loss [nM]
B6 | 97 | 2.13
B7 | 113 | 1.43
B1 | 132 | 1.96
B2 | 125 | 2.48
B4 | 126 | 2.61
B3 | 112 | 2.8
B5 | 150 | 2.3

biological target: T1, recombinant HIS-tagged human nectin-4 …; assay: SPR Biacore 8K+, ADC captured via anti-human Fc, nectin-4 analyte, 37 C; replicate 1 of 2

Binder | Kd [nM] | koff [s⁻¹] | kon [M⁻¹ s⁻¹]
B4 | 41.2 | 0.0243 | 591000
B5 | 142 | 0.0402 | 283000

biological target: T5, human nectin-4 on cells; assay: cell-based or functional assay

Binder | Cytotoxicity IC50, NCI H1781 cells [nM] | Cytotoxicity IC50, T24 Nectin-4 clone 108 cells [nM]
B1 | 0.0473 | 0.07
B2 | 0.0572 | 0.088
B4 | 0.0543 | 0.0801
B3 | 0.0657 | 0.0994
B5 | 0.0981 | 0.0729

biological target: T5, human nectin-4 on cells; assay: flow cytometry, SUM190PT cells (high endogenous nectin-4)

Binder | % of enfortumab (Average Max MFI) [%] | Average Max MFI [MFI] | EC50 [nM]
B6 | 100 | 1.1e+06 | 0.11
B7 | 87.2 | 920000 | 0.19

biological target: T5, human nectin-4 on cells; assay: flow cytometry, NCI-H1781 cells (low endogenous nectin-4)

Binder | % of enfortumab (Average Max MFI) [%] | Average Max MFI [MFI] | EC50 [nM]
B6 | 100 | 91000 | 0.05
B7 | 95.7 | 87000 | 0.06

biological target: T5, human nectin-4 on cells; assay: flow cytometry, differentiated normal human epidermal keratinocytes (HEKα)

Binder | EC50 [nM]
B6 | 0.06
B7 | 0.05
B1 | 0.05
